Assay: label from the status in PepcDB records

MTNQEQSGDGGRLAPRPVERPPVDPAAQRTFGRPAGVEGSFLGAGQYQDQGEYAPKDQPPDPVLAEAFGRPRGTSETLQRHPTDAGALEAERLGDEDVTDDPWRDPSAPVALGTPAQPPPPPVYVNAPTGKLGLREVLFGGRVSWIALLTLALVAVLIAFVGGWVGQKTAGTVQAFTTSKVTLETGDHPDPDAGRFEQVAAAVADSVVTIEAKSKTEGSQGSGVVVDGKGYIVTNNHVISEAATKPADFQITVVFNDGKEVPANLVGRDPKTDLAVLKVDNVDNLTVAKLGDSEKIRVGEEVIAAGAPLGLRSTVTHGIVSALHRPVPLSGDGSDTDTVIDGVQTDASINHGNSGGPLINMNAEVIGINTAGKSLSDSASGLGFAIPVNEVKEVVETLVKDGKVAHPTLLVNAVTVSNSVASGAQIKNVVENGPAGKAGMLENDVVVKVGDRKVADADEFVVAVRQLKIGQEAPIEVVRDGRPLTLMVTPIGDDQKAQ
protein production: failed

MPHVRPSNAWRFLRTLWLGAWLAGWALLAQAQQLAPVPEFGARVVDQSGVLDAAQRQRLEAQLAALEQRKGAQVAVLIVPSTAPETIEQYATRAFEKWKIGRDKVDDGVLLLMASDDRALRIEVGYGLEGAIPDSAAGRIINEYIVPRLRAGDWPGAVQAGVTALERRIEGEELPPPAASGRDEGSRLAGIRGWLGENGIAALVVLLILPGPIAAALAGVGVAIYMQSISAGLAMALLVLGIKVIIKALPSGGGGGGGGGGGSGGGGFGGWRGGSRGGSGSGGFGGFRGGGGGRSGGGGASGRWLEHHHHHH
protein production: failed

MGEGALAPGLQLLLRACEQGDTDTARRLLEPGGEPVAGSEAGAEPAGPEAARAVEAGTPVPVDCSDEAGNSALQLAAAGGHEPLVRFLLRRGASVNSRNHYGWSALMQAARCGHASVAHLLLDHGADVNAQNRLGASVLTVASRGGHLGVVKLLLEAGATVDHRNPSGESTASGGSRDELLGITALMAAVQHGHEAVVRLLMEWGADPNHTARTVGWSPLMLAALLGKLSVVQQLVEKGANPDHLGVLEKTAFEVALDRKHRDLADYLDPLTTVRPKTDEEKRRPDIFHALKMGNFQLVKEIADEDPNHVNLVNGDGATPLMLAAVTGQLPLVQLLVEKHADMNKQDSVHGWTALMQATYHGNKEIVKYLLNQGADVTLRAKNGYTAFDLVMLLNDPDTELVRLLASVCMQVNKDRGGRPSHRPPLPHSKARQPWSIPMLPDDKGGLKSWWSRMSNRFRKLKLMQTLPRGLAANQPLPFSDEPELALDSTMRAPPQDRTNHLGPPEAAHAAKDSGPGNPRREKDDVLLTTMLRNGAPFPRLPSDKLKAVIPPFLPPSSFELWSSDRSRTCPNGKADPMKTVLPPRASRAHPVGCVGTDGAAGRPVKFPSISRSPTSPASSGNFNHSPHSSGGASGVGSMSRLGGELHNRSGGSVDSVLSQIAAQRKKAAGLCEQKPPCQQSSPVGPATGSSPPELPASLLGSGSGSSNVTSSSKKLDPGKRPPSGTSATSKSTSPTLTPSPSPKGHTAESSVSSSSSHRQSKSSGGSSSGTITDEDELTGILKKLSLEKYQPIFEEQEVDMEAFLTLTDGDLQELGIKTDGSRQQILAAISELNAGKGRERQILQETIHNFHSSFESSASNTRAPGNSPSMAGWVRPEETVSSRR
protein production: failed

HGGHRQYAKEILSTSSAAMASQRSFLGLEPTIKKIPAFRAVYLRHKGYNKSIALSWQKLMAWGFEHQISSQARQIGIHHDNPSITPLAECRYIAALEVEEGFRAQGLLGVMEFPPTLCAVFEVQGRYGDVLGLIDYVYHEWLPQSGYEAKTIPAFALYQKNHFLDPLGNFQLDFCLPVGVV
protein production: failed

MSEKLQKVLARAGHGSRREIESIIEAGRVSVDGKIAKLGDRVEVTPGLKIRIDGHLISVRESAEQICRVLAYYKPEGELCTRNDPEGRPTVFDRLPKLRGARWIAVGRLDVNTCGLLLFTTDGELANRLMHPSREVEREYAVRVFGQVDDAKLRDLSRGVQLEDGPAAFKTIKFSGGEGINQWYNVTLTEGRNREVRRLWEAVGVQVSRLIRVRYGDIPLPKGLPRGGWTELDLAQTNYLRELVELPPETSSKVAVEKDRRRMKANQIRRAVKRHSQVSGGRRSGGRNNNG
protein production: not failed

MQSKAHALTFTVLPITQKTDQWSVKVSEAKNVKEFTRPHKGEYQVYSLGSQKYRGKSSYSGCAIVLEHHHHHH
protein production: not failed

MAQINFEGLRELHDCVNYLLHHCPKTRESLSQQGQEKWTEQVSEASLRMLDICNVSKDVMTLVKHSLQDLQLTLRGNESSDVNEKIAAYNRYKNKLKKETLKCLNCLKNMKGNEGRVAMPIEQNLLFVTEVLKEVRRVVVTMVESLFSLGCIPWLEKRSSKGSLSSIFSIRSSYLLDDEWDETAVQSATTRLEAAEITVVELEIELESIFRRLIQTRVSLLNILTN
protein production: failed

VDQLFFSTTDAQGRIQETNNTFVELSRYTEEELRNAAHNIIRHPFMPGGVFKIMWDKLQRGETFAGYVRNLAHSGETYDVFATVTPIPGTHD
protein production: failed

MNPSHGRGLGSAGGSSSGRNQGGGGETVVEMFPSGLRVLVVDDDPTCLMILERMLRTCLYEVTKCNRAEMALSLLRKNKHGFDIVISDVHMPDMD
protein production: failed

MLLFTPGPVAINEEMRTSFSQPMPHHRTKDFEKIFQSVRENLKKMTGLEEVLLLSSSGTGAMEASVISLCQKELLFVNAGKFGERFGKIAKAHSIKAHELVYEWDTPAQVDEILSVLKANPNIDAFCIQACESSGGLRHPVEKIAQAIKETNPNVFVIVDAITALGVEPLEITHVDALIGGSQKAFMLPPAMSLVALSQNAIERIEERNVGFYFNLKSELKNQRNNTTSYTAPILHTLGLQRYFELVQNLGGFEALYRETKKAALATQKAVLALGLKIFPKSPSLSMTTIVNEHAKELRNLLKEKYQVQFAGGQEPYKDALIRINHMGIIPVYKSAYALNALELALNDLDLREFDGVANATFLKQYYGI
protein production: failed

MTTYTSIANVIKERRSVRTFTDKAVEKDLLIELLNDATWAPNHKHREPWNCKLYIGEGRKKLVDAVLNSFTEEERAKRGKILSDRFLSTPAQIVVYMNEDPRQIQRDEDYAATCAFMQNFQLLAWERGLGCVWKSGGLNYNPLFIEGIGLTRGQRIVGILHIGYFDKAPEGKARTPITEKMEIIEG
protein production: not failed

MPTTTTDPNQKQAELSPDELQRYSRHLTLPEFGREGQEALKNASVLLVGAGGLGSPAATYLAAAGVGRIGLVDFDSVEASNLQRQILYGTSDVGRPKLDAASERLEDLNPHVDVETHEVRLTSDNALDIIDQYDVVADGTDNFPTRYLVNDACVMTGTPNVYASIFRFEGQVSVFATEDGPCYRCLYEEPPPPGLVPSCAEGGVLGILPGFIGTLQATEVIKVLTGVGEPLVGRLLMSDALNMDFRTVNVPTNPECPVCGDDPTVTELIDYEAFCGLPQSDESSPNGTADSDVSDTDDAVPETSVHDLKQRRDAGDAPFVLDVREPYEAEIASLDADQLIPVDDLEARLDELDAGPEEEIVVHCRSGARSAKATAFLREQGYDASNLEGGVLAWSEEIDDSVPQY
protein production: failed

MKAKGNQKTKVNIVTLGCSKNLVDSENLLTQLRGNGIEAEHESKNDNSNVVVINTCGFIDNAKQESIDTILRYIDAKENGLIDKIYVSGCLSQRYKDDMEREMPQVDAFFGSNELPAILKKFRADYKHELVGERLLTTPSHYAYVKIAEGCDRPCSFCAIPVMRGKHVSTPMEDLVKQAKGMAAKGTKELILIAQDLTYYGLDIYKKRNLSDLLKNLSDVEGIDWIRLQYAYPSGFPLDVLDVMAERSNICKYIDMPLQHGSSDMLKLMRRGIDRPKTEDLIKTIRDKVPGIAFRTTMIIGHPGETEKDFDELCSFVEEQRFDRLGAFTYSHEEHTHSYSMEDTIPQEEKEERQATIMSIQEGISAELNEKKIGNTYKVLFDRKEGGYFIGRTEHDSPEVDNEVMVSAKDQYVRIGDFANVKINDAAEFDLFGEIVK
protein production: failed

MDETVAEFIKRTILKIPMNELTTILKAWDFLSENQLQTVNFRQRKESVVQHLIHLCEEKRASISDAALLDIIYMQFHQHQKVWDVFQMSKGPGEDVDLFDMKQFKNSFKKILQRALKNVTVSFRETEENAVWIRIAWGTQYTKPNQYKPTYVVYYSQTPYAFTSSSMLRRNTPLLGQELEATGKIYLRQEEIILDITEMKKACN
protein production: failed

MSERRDAILKASATAIAQRGIRGLRVNDVAEVAGVSPGLLYYHFKDRIGLLEAALNYINDRARAYRSEGEGSGDSARDRLTRSLLGEIQDRPEVVENSLAWNELRASAVYEEALRDPLARTTAAWVSEIADAIVQAQATGEISRSLDPQPTAVTMTALVEGLSGRWLCKEISTEDARSHLLGAIDVVMSEPTHHTADTPVTPTPKEYR
protein production: not failed

IRQAARGDAERGLGRRRLMQALDGMEAGCALLDGRGSLQEASHGLCRLLGRGRADLLGMNVADVCAPEDLSRLNAALACGGRMQRLRLRLMDGDGRAVDCELVLTPQEESMDGAAWLLQAED
protein production: failed

MVNFDCVIEELDEKTKEMLRVIDEDADSFAARAEMYYKKRPELIAMVEEFYRSHRSLAERYDLLRPSSVHKHGSDSESHEKSSTCDESSWSEACETHEEYAESEIDNGESKWVDESEIDGIVEEIEPSEVVYSEGNGNSEMMKIEIERLREENKVYSEMVREKDEEKREAIRQMSVAIQMLKEENSELKKRVTNTVVARRNKEGGDSQRKQQMWKPFEFKKIKLEGLWGKGFGNWALPNTDSTSKELMTL
protein production: failed

MPTTKQLKDTELPLNFFEHSSLETIELFIQHLTEAMILVNANGFIRSCNQRSAELLDCPQVSLKGQDWRNFLTEHHQARYDNLLSHDVQLGTNCGQPVQHPAQETTLICASGKAKDVELSISYIPGHEPMFVMVMHDLTHHKAENQKLRKLAATDSLTQLANRRYFDEMLQQHWEECTAKLRPISVVIIDVDYFKVFNDQFGHIQGDECLRKIAKVIAGIVPTEIGLAARYGGEEFALILPNHNAKMALTIAQKIQQGINNIRFTDQGLRDYVSVSASQGIACEVNGQFRTSLAMVCAADTALYRAKADGRDRINTSL
protein production: failed

LSPPRGLVAVRTPRGVLLHWDPPELVPKRLDGYVLEGRQGSQGWEVLDPAVAGTETELLVPGLIKDVLYEFRLVAFAGSFVSDPSNTANVSTSGL
protein production: not failed

PEKLPYLVELSPDGSDSRDKPKLYRLQLSVTEVGTEKFDDNSIQLFGPGIQPHHCDLTNMDGVVTVTPRSMDAETYVDGQRISETTMLQSGMRLQFGTSHVFKFVDP
protein production: not failed

PFKAGKARGLTTEQLNTRLDIDEFETGLMRLAQDSFSTDDYLFQEGQYLDEDTVLSWLARKKTGSDLKKAEKEDKNFKNEGLNPALPSSGSTEEKNESSPIYLASMLEHDYLVRKDKNSIQLGGVMIGLALNSVYYYREKTGDPQKEVEIKDSTLRQQGEKIAQEVINRLRKKDNLKNVPITVALYKQASKTSIVPGNFIAKTEVKAGSTDISNWDDINEKYVFYPADTTTAEKYPDDTEVFKRFKNSIEEYFPNYTGVVGTALYENDEMKKMKIDIPMQFYGKSEVVAFTQFLTGEVMDYYSKSSVDVEVNITSSDGQEAVIIRNAGDKEPTVHIYD
protein production: failed

MARQLDEQIAGRFPVGQRLRVLDVGMGQGTQALRLARAGHQVTGVEQDATMIAVARETLAAEPEGIRSRMRLVQSDGRDTGVHFLPGSFDVVLCHGVLMYVEDPDALLAGLARMLAPGGLLSLLVRNADALAMRPGLAGDWASALTSFDTTAYTNRLGLDVRADRLDALTSTLAGIGAPLHAWYGVRVFTDTAADGAELPADVETLLAAEERAGRTDPYRQVAALLHLCGVRGGGAP
protein production: failed

MSGEGNLGKDHEEENEAPLPGFRFHPTDEELLGYYLRRKVENKTIKLELIKQIDIYKYDPWDLPRVSSVGEKEWYFFCMRGRKYRNSVRPNRVTGSGFWKATGIDKPVYSNLDCVGLKKSLVYYLGSAGKGTKTDWMMHEFRLPSTTKTDSPAQQAEVWTLCRIFKRVTSQRNPTILPPNRKPVITLTDTCSKTSSLDSDHTSHRTVDSMSHEPPLPQPQNPYWNQHIVGFNQPTYTGNDNNLLMSFWNGNGGDFIGDSASWDELRSVIDGNTKP
protein production: failed

From a protein production outcome set (Wang et al. 2014)
